Patent publication US9200265B2, “Anti-cocaine compositions and treatment” (priority 2006, dated 2015)
Where a chain is given by its changes, count along the chain named. Names may count otherwise. Read-outs that look alike come from different tables or passages of the source.

Assays:
[1] = system: cocaine-induced lethality; assay: Cocaine toxicity in mice, incl. repeated CocE doses; format: in vivo, mouse
From the text: The animal toxicity model was similar to that described previously, except as described. Male NIH Swiss mice were used. For tail intravenous injection, mice are placed in a small restraint chamber that exposes their tail. A heat lamp with an infrared, 250 w bulb is placed about 4 inches from the tail, and left for a couple of minutes. The tail is then cleansed with an alcohol wipe and a 30 G ½ precision glide needle (Fisher Scientific), is inserted into one of the side veins for infusion. To verify whether the needle is in the vein a small amount of drug is infused, if in the correct location the solution should infuse easily without any indication of an incorrect subcutaneous location, which appears white at the site of injection. For intravenous catheterization, Male NIH Swiss mice are anesthetized with ketamine 100 mg/kg and xylazine 10 mg/kg co-administered i.p. When mice are no longer responsive to paw pressure, the neck is shaved and prepped by alternating Betadine and alcohol wipes. Under clean conditions, a right transverse neck incision is made and the external jugular vein is isolated. A catheter is inserted into the vein with the aid of a dissecting microscope to the level of the right atrium, and is secured in the vein with nylon, 4-0 sutures and tissue adhesive, 3M Vetbond (3M Animal Care Products, St. Paul, Minn.). The catheters are a short length of Tygon tubing with an inner diameter of 0.010 in. and an outer diameter of 0.030 in. (Small Parts, Inc., Miami Lakes, Fla.). A small incision is made in the middle of the animal's back, and a trocar inserted subcutaneously to exit at the ventral incision site. The catheter is then pulled through the trocar and brought out the animal's back where it is held in place with nylon suture material and the tissue adhesive. A short piece of steel wire with a diameter of 0.011 in. (Small Parts, Inc., Miami Lakes, Fla.) is inserted into the end of the catheter. The ventral incision is closed with 4-0 Vicryl suture material and the mouse placed under a heat lamp for recovery. Approximately an hour later, the mouse is returned to its home cage.
Mice that survived a first administration of the combination of 0.32 mg CocE and 320 mg/kg cocaine were given this combination again, 14 days following the initial administration.

[2] = cited from earlier work
[3] = humans; cited from earlier work
[4] = Cocaine blood levels and lethal concentrations in the rat (literature)
[5] = system: cocaine-induced lethality; assay: Rodent model of acute cocaine toxicity (convulsions and lethality) in rats
[6] = Non-denaturing polyacrylamide gel electrophoresis after incubation at 37° C. (aggregation); format: physicochemical; details: non-denaturing gels, 0.1 mg/ml
Protocol: Plasmids containing the mutations were transformed into E. coli BL21 cells and IPTG-induced enzyme was purified on Ni-Agarose. Expressed proteins were then tested for enzymatic activity and for thermostability at 37° C. Enzyme activity was measured using the spectrophotometric assay as described in Example 1. Thermostability was also tested via the spectrophotometric assay by pre-incubation of both wild-type and mutants at 37° C. for various times. Additionally, the nature of the thermo-instability of both the wild-type and T172R mutant was analyzed by polyacrylamide gel electrophoresis under denaturing and non-denaturing conditions. Briefly, mutant and wild-type enzyme at 0.1 mg/ml were incubated at 37° C. for various time-points, cooled to 4° C., mixed with SDS-loading dye containing-mercaptoethanol and run on 10% SDS-PAGE gels (denaturing conditions) or run on native 10% polyacrylamide gels (non-denaturing conditions) at 4° C. Gels were fixed with 10% methanol, 7% acetic acid for 30 minutes, and then stained with Sypro-Ruby protein gel stain (Molecular Probes, Invitrogen) for 3 hours. […] Finally, the exact melting temperature of both the wild-type and T172R mutant were determined by circular dichroism using a JASCO-810 spectropolarimeter driven by a JASCO V500/FP-750 analysis program for Windows. The CD spectra were measured in millidegrees and normalized against PBS buffer.

[7] = Melting temperature by circular dichroism (near-UV); format: physicochemical
Protocol: Plasmids containing the mutations were transformed into E. coli BL21 cells and IPTG-induced enzyme was purified on Ni-Agarose. Expressed proteins were then tested for enzymatic activity and for thermostability at 37° C. Enzyme activity was measured using the spectrophotometric assay as described in Example 1. Thermostability was also tested via the spectrophotometric assay by pre-incubation of both wild-type and mutants at 37° C. for various times. Additionally, the nature of the thermo-instability of both the wild-type and T172R mutant was analyzed by polyacrylamide gel electrophoresis under denaturing and non-denaturing conditions. Briefly, mutant and wild-type enzyme at 0.1 mg/ml were incubated at 37° C. for various time-points, cooled to 4° C., mixed with SDS-loading dye containing-mercaptoethanol and run on 10% SDS-PAGE gels (denaturing conditions) or run on native 10% polyacrylamide gels (non-denaturing conditions) at 4° C. Gels were fixed with 10% methanol, 7% acetic acid for 30 minutes, and then stained with Sypro-Ruby protein gel stain (Molecular Probes, Invitrogen) for 3 hours. Protein staining was visualized under UV-light using an AlphaImager™ 3400 (Alpha Innotech). Finally, the exact melting temperature of both the wild-type and T172R mutant were determined by circular dichroism using a JASCO-810 spectropolarimeter driven by a JASCO V500/FP-750 analysis program for Windows. The CD spectra were measured in millidegrees and normalized against PBS buffer.

[8] = Low-UV CD spectra melt with CCA deconvolution; format: physicochemical
Protocol: Low-UV CD spectra data were obtained using an Aviv Spectropolarimeter Mode 400, with the help of Norma Greenfield, UMDNJ, using a 5-cell holder and 0.2 mg/ml protein concentrations. Raw data values obtained were blanked on control PBS, smoothed, and deconvoluted using the CCA algorithm as described by A. Perczel, K. Park, and G. D. Fasman, [Analysis of the circular dichroism spectrum of proteins using the convex constraint algorithm: a practical guide. Analytical Biochemistry 203, 83-93 (1992).] This algorithm finds the minimum number of curves needed to reconstruct a data set, and expresses the percentage each curve contributes to the data set as a function of temperature.
Below is presented a low UV CCA denconvolution analysis of CocE WT and 4 mutants, obtained in a single CD spectra melt using a 5-cell holder. The experiment was performed over the period of 8 hours, from 0-80° C.
Temperature dependent melting was observed between the wavelengths tested (200-250 nm), and the smoothed spectra for each mutant are shown in FIG. 29. […] Dose response analysis was used to approximate the temperature at which the initial spectra melts (1), the formation and melt of the intermediate state (2), and the accumulation of the fully melted protein (3).

[9] = Cocaine spectrophotometric assay (240 nm), Michaelis-Menten kinetics
[10] = against (-) cocaine; cited from earlier work
[11] = system: cocaine-induced lethality; details: rats; cited from earlier work
[12] = CocE activity recovered after pegylation (initial rates of cocaine hydrolysis); details: m-PEG 5.5 KDa, preliminary
[13] = Gel filtration of samples incubated at 37° C.; format: physicochemical
Protocol: Higher Km values on day 3 were due to reuse of old cocaine.
Protection from aggregation of thermal stable CocE mutants was assessed using size exclusion chromatography. Briefly, enzymes were preincubated at 37° C. for 0 minutes or 60 minutes and resolved by size exclusion chromatography.

Molecule: COC(=O)[C@H]1[C@@H](OC(=O)c2ccccc2)C[C@@H]2CC[C@H]1N2C [cocaine]
- time to death ([1]; 180 mg/kg i.p. cocaine alone, mice): about 3 min
- time of peak plasma levels ([2]; after an intraperitoneal injection): about 13 minutes
- lethal blood concentrations ([2]; rat): 50 to 128 µM
- lethal concentrations [3]: 20 to 200 µM
- estimated peak cocaine blood concentration ([4]; 100 mg/kg cocaine i.p.): 35 µM
- estimated peak cocaine blood concentration ([4]; 320 mg/kg cocaine i.p.): 113 µM
- animals in which death was observed ([5]; 100 mg/kg cocaine, rats): 100%
- time to death after administration ([5]; 100 mg/kg cocaine, rats): less than 15 minutes

B1: T172R: mutant CocE polypeptide, SEQ ID NO: 25 (protein)
chain: MVDGNYSVASNVMVPMRDGVRLAVDLYRPDADGPVPVLLVRNPYDKFDVFAWSTQSTNWLEFVRDGYAVVIQDTRGLFASEGEFVPHVDDEADAEDTLSWILEQAWCDGNVGMFGVSYLGVTQWQAAVSGVGGLKAIAPSMASADLYRAPWYGPGGALSVEALLGWSALIGRGLITSRSDARPEDAADFVQLAAILNDVAGAASVTPLAEQPLLGRLIPWVIDQVVDHPDNDESWQSISLFERLGGLATPALITAGWYDGFVGESLRTFVAVKDNADARLVVGPWSHSNLTGRNADRKFGIAATYPIQEATTMHKAFFDRHLRGETDALAGVPKVRLFVMGIDEWRDETDWPLPDTAYTPFYLGGSGAANTSTGGGTLSTSISGTESADTYLYDPADPVPSLGGTLLFHNGDNGPADQRPIHDRDDVLCYSTEVLTDPVEVTGTVSARLFVSSSAVDTDFTAKLVDVFPDGRAIALCDGIVRMRYRETLVNPTLIEAGEIYEVAIDMLATSNVFLPGHRIMVQVSSSNFPKYDRNSNTGGVIAREQLEEMCTAVNRIHRGPEHPSHIVLPIIKR
modifications: Mutant CocE polypeptide
- half-life at 37° C. relative to the wildtype [6]: ~8 ×
- increased melting temperature compared to the wild-type CocE [7]: 5 degrees
- detectable denaturation beginning ([7]; near-UV CD): approximately 28 °C
- melting temperature ([7]; near-UV CD (260-320 nm), curve-fitting): 41.43 °C
- #3 formation ([8]; accumulation of the fully melted protein): 56.85 °C
- #2 formation ([8]; formation of the intermediate state): 38.11 °C
- #1 melt ([8]; initial spectra melts, 0.2 mg/ml): 39.22 °C
- #2 melt ([8]; melt of the intermediate state): 54.56 °C
- Km ([9]; 40 min @ 37° C.): 78.8 µM
- Km ([9]; no preincubation): 88.2 µM
- duration of prophylactic effects ([5]; 0.32 mg given 1, 10, 30, 60 minutes before 320 mg/kg cocaine): longer lasting than the wild-type CocE
- lethality ([5]; 0.32 mg i.v. one minute after 1 g/kg cocaine i.p., rats): about 70%

B2: BChE: serum butyrylcholinesterase (protein, UniProt P06276 29-602, looked up)
Cholinesterase: EDDIIIATKNGKVRGMNLTVFGGTVTAFLGIPYAQPPLGRLRFKKPQSLTKWSDIWNATKYANSCCQNIDQSFPGFHGSEMWNPNTDLSEDCLYLNVWIPAPKPKNATVLIWIYGGGFQTGTSSLHVYDGKFLARVERVIVVSMNYRVGALGFLALPGNPEAPGNMGLFDQQLALQWVQKNIAAFGGNPKSVTLFGESAGAASVSLHLLSPGSHSLFTRAILQSGSFNAPWAVTSLYEARNRTLNLAKLTGCSRENETEIIKCLRNKDPQEILLNEAFVVPYGTPLSVNFGPTVDGDFLTDMPDILLELGQFKKTQILVGVNKDEGTAFLVYGAPGFSKDNNSIITRKEFQEGLKIFFPGVSEFGKESILFHYTDWVDDQRPENYREALGDVVGDYNFICPALEFTKKFSEWGNNAFFYYFEHRSSKLPWPEWMGVMHGYEIEFVFGLPLERRDNYTKAEEILSRSIVKRWANFAKYGNPNETQNNSTSWPVFKSTEQKYLTLNTESTRIMTKLRAQQCRFWTSFFPKVLEMTGNIDEAEWEWKAGFHRWNNYMMDWKNQFNDYTSKKESCVGL
- change in the dose of cocaine necessary to kill the mice ([1]; 1 mg): slight increase
- time to death ([1]; 1 mg): not modified
- Kcat [10]: 0.0683 s⁻¹
- Km [10]: 4.5 µM
- treatment required for protection against an LD50 dose of cocaine [11]: 10 mg/kg
- protection against cocaine-induced lethality ([5]; 13 mg (10-times molar equivalent dose), one minute before 180 mg/kg cocaine): no protection

B3: PEG-CocE: wild-type CocE linked with monomethoxy-PEG polymers (MW 5.5 KDa), mixture with 1 to 4 PEG chains (conjugate, UniProt Q9L9D7 1-574, looked up)
Cocaine esterase: B1 chain with R172T
modifications: monomethoxy-PEG 5.5 kDa, 1-4 chains
- initial CocE activity recovered after the pegylation reaction [12]: > 70%

B4: N197K (protein)
chain: MVDGNYSVASNVMVPMRDGVRLAVDLYRPDADGPVPVLLVRNPYDKFDVFAWSTQSTNWLEFVRDGYAVVIQDTRGLFASEGEFVPHVDDEADAEDTLSWILEQAWCDGNVGMFGVSYLGVTQWQAAVSGVGGLKAIAPSMASADLYRAPWYGPGGALSVEALLGWSALIGTGLITSRSDARPEDAADFVQLAAILKDVAGAASVTPLAEQPLLGRLIPWVIDQVVDHPDNDESWQSISLFERLGGLATPALITAGWYDGFVGESLRTFVAVKDNADARLVVGPWSHSNLTGRNADRKFGIAATYPIQEATTMHKAFFDRHLRGETDALAGVPKVRLFVMGIDEWRDETDWPLPDTAYTPFYLGGSGAANTSTGGGTLSTSISGTESADTYLYDPADPVPSLGGTLLFHNGDNGPADQRPIHDRDDVLCYSTEVLTDPVEVTGTVSARLFVSSSAVDTDFTAKLVDVFPDGRAIALCDGIVRMRYRETLVNPTLIEAGEIYEVAIDMLATSNVFLPGHRIMVQVSSSNFPKYDRNSNTGGVIAREQLEEMCTAVNRIHRGPEHPSHIVLPIIKRLEHHHHHH
modifications: Mutant CocE polypeptide
- gel filtration result [13]: formation of aggregates
- Km ([9]; Day 0, (0) at 37° C.): 34.8 µM
- Km ([9]; Day 0, (60) at 37° C.): 24.2 µM
- Km ([9]; Day 3 repeat, (0), old cocaine reused): 102 µM
- Km ([9]; Day 3 repeat, (60), old cocaine reused): 114 µM
- stability after 1 hour at 37° C. ([9]; day 0, preliminary): good stability
